Changes are numbered by the printed parent chain. “And” between values parts separate entries of the source, which are not always exact repeats. Equal entries are not always repeated.
T1: human BCMA on cells (human, UniProt Q02223 1-184)
T1 sequence (looked up): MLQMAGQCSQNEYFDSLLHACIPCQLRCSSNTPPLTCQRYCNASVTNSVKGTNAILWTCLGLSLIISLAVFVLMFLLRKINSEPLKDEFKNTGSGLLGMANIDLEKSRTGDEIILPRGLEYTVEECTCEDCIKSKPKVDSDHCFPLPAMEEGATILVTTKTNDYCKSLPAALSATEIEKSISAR

B1: 22-TCBcv (bispecific antibody, human IgG1, kappa, L234A L235A)
heavy 1: not shown
heavy 2: EVQLLESGGGLVQPGGSLRLSCAASGFTFSDNAMGWVRQAPGKGLEWVSAISGPGSSTYYADSVKGRFTISRDNSKNTLYLQMNSLRAEDTAVYYCAKVLGWFDYWGQGTLVTVSSASTKGPSVFPLAPSSKSTSGGTAALGCLVEDYFPEPVTVSWNSGALTSGVHTFPAVLQSSGLYSLSSVVTVPSSSLGTQTYICNVNHKPSNTKVDEKVEPKSCDKTHTCPPCPAPEAAGGPSVFLFPPKPKDTLMISRTPEVTCVVVDVSHEDPEVKFNWYVDGVEVHNAKTKPREEQYNSTYRVVSVLTVLHQDWLNGKEYKCKVSNKALGAPIEKTISKAKGQPREPQVCTLPPSRDELTKNQVSLSCAVKGFYPSDIAVEWESNGQPENNYKTTPPVLDSDGSFFLVSKLTVDKSRWQQGNVFSCSVMHEALHNHYTQKSLSLSPGK
light 1: EIVLTQSPGTLSLSPGERATLSCRASQSVSSYYLAWYQQKPGQAPRLLISGAGSRATGIPDRFSGSGSGTDFTLTISRLEPEDFAVYYCQQYGYPPDFTFGQGTKVEIKRTVAAPSVFIFPPSDRKLKSGTASVVCLLNNFYPREAKVQWKVDNALQSGNSQESVTEQDSKDSTYSLSSTLTLSKADYEKHKVYACEVTHQGLSSPVTKSFNRGEC
light 2: EVQLLESGGGLVQPGGSLRLSCAASGFTFSTYAMNWVRQAPGKGLEWVSRIRSKYNNYATYYADSVKGRFTISRDDSKNTLYLQMNSLRAEDTAVYYCVRHGNFGNSYVSWFAYWGQGTLVTVSSASVAAPSVFIFPPSDEQLKSGTASVVCLLNNFYPREAKVQWKVDNALQSGNSQESVTEQDSKDSTYSLSSTLTLSKADYEKHKVYACEVTHQGLSSPVTKSFNRGEC
notes: also called 22-TCVcv; anti-BCMA/anti-CD3 T cell bispecific antibody of Mab22
B2: 42-TCBcv (bispecific antibody, human IgG1, kappa, L234A L235A)
heavy 1: not shown
heavy 2: B1 heavy 2
light 1: B1 light 1 with S31D, Y32E, A35S, S50H, G51S, G53S, S54T, T75A
light 2: B1 light 2
notes: also called 42-TCVcv; anti-BCMA/anti-CD3 T cell bispecific antibody of Mab42

Legend:
human BCMA on cells [1] = biological target: T1, human BCMA on cells; assay: cell-based or functional assay
human BCMA on cells [2] = biological target: T1, human BCMA on cells; assay: cell-based or functional assay; remark: listed apart in the source
human BCMA on cells [3] = biological target: T1, human BCMA on cells; assay: cell-based or functional assay; remark: listed apart in the source
human BCMA on cells [4] = biological target: T1, human BCMA on cells; assay: flow cytometry on L363 multiple myeloma cells, PE anti-human Fc F(ab')2 detection; estimated EC50
Procedure: (§1) Briefly, cultured cells are harvested, counted and cell viability was evaluated using ViCell. Viable cells are then adjusted to 2×10⁶ cells per ml in BSA-containing FACS Stain Buffer (BD Biosciences). 100 μl of this cell suspension were further aliquoted per well into a round-bottom 96-well plate and incubated with 30 μl of the anti-BCMA antibodies or corresponding IgG control for 30 min at 4° c. All Anti-BCMA/anti-CD3 TCB antibodies (and TCB controls) were titrated and analyzed in final concentration range between 1-300 nM. Cells were then centrifuged (5 min, 350×g), washed with 120 μl/well FACS Stain Buffer (BD Biosciences), resuspended and incubated for an additional 30 min at 4° C. with fluorochrome-conjugated PE-conjugated AffiniPure F(ab′)2 Fragment goat anti-human IgG Fc Fragment Specific (Jackson Immuno Research Lab; 109-116-170). Cells were then washed twice with Stain Buffer (BD Biosciences), fixed using 100 ul BD Fixation buffer per well (#BD Biosciences, 554655) at 4° C. for 20 min, resuspended in 120 μl FACS buffer and analyzed using BD FACS CantoII.

human BCMA on cells [5] = biological target: T1, human BCMA on cells; assay: cell-based or functional assay; remark: listed apart in the source
human BCMA on cells [6] = biological target: T1, human BCMA on cells; assay: cell-based or functional assay; remark: listed apart in the source
human BCMA on cells [7] = biological target: T1, human BCMA on cells; assay: flow cytometry on H929 multiple myeloma cells, PE anti-human Fc F(ab')2 detection; estimated EC50
Procedure: as §1

human BCMA on cells [8] = biological target: T1, human BCMA on cells; assay: flow cytometry on RPMI-8226 multiple myeloma cells, PE anti-human Fc F(ab')2 detection; estimated EC50
Procedure: as §1

Binder | Lysis of JJN-3 cells (%) at 0.1 pM TCB, Experiment 2 (human BCMA on cells [1]) | Lysis of JJN-3 cells (%) at 1 pM TCB, Experiment 1 (human BCMA on cells [1]) | Lysis of JJN-3 cells (%) at 1 pM TCB, Experiment 2 (human BCMA on cells [1]) | Lysis of JJN-3 cells (%) at 10 pM TCB, Experiment 1 (human BCMA on cells [1]) | Lysis of JJN-3 cells (%) at 10 pM TCB, Experiment 2 (human BCMA on cells [1]) | Lysis of JJN-3 cells (%) at 100 pM TCB, Experiment 1 (human BCMA on cells [1]) | Lysis of JJN-3 cells (%) at 100 pM TCB, Experiment 2 (human BCMA on cells [1]) | Lysis of JJN-3 cells (%) at 1000 pM TCB, Experiment 1 (human BCMA on cells [1]) | Lysis of JJN-3 cells (%) at 1000 pM TCB, Experiment 2 (human BCMA on cells [1]) | Lysis of JJN-3 cells (%) at 10000 pM TCB, Experiment 1 (human BCMA on cells [1]) | Lysis of JJN-3 cells (%) at 10000 pM TCB, Experiment 2 (human BCMA on cells [1]) | EC50 of redirected T-cell killing of RPMI-8226 cells (LDH release), Donor 2 (human BCMA on cells [2]) | EC50 of redirected T-cell killing of RPMI-8226 cells (LDH release), Donor 3 (human BCMA on cells [2]) | EC50 of redirected T-cell killing of RPMI-8226 cells (LDH release), Donor 4 (human BCMA on cells [2]) | EC50 of redirected T-cell killing of RPMI-8226 cells (LDH release), Donor 5 (human BCMA on cells [2]) | EC50 of redirected T-cell killing of L363 cells (LDH release), Donor 1 (human BCMA on cells [3]) | EC50 of redirected T-cell killing of L363 cells (LDH release), Donor 2 (human BCMA on cells [3]) | EC50 of redirected T-cell killing of L363 cells (LDH release), Donor 3 (human BCMA on cells [3]) | EC50 of redirected T-cell killing of L363 cells (LDH release), Donor 4 (human BCMA on cells [3]) | EC50 of redirected T-cell killing of L363 cells (LDH release), Donor 5 (human BCMA on cells [3]) | also measured
B1 | 36.5% | -4.29% | 24.4% | 73.6% | 41.7% | 56.3% | 53% | 90.5% | 94.1% | 88% | 91.2% | 0.0476 nM | 0.0076 nM | 0.0032 nM | 0.0055 nM | 0.0975 nM | 0.0277 nM | 0.0165 nM | 0.0146 nM | 0.056 nM | EC50 (human BCMA on cells [4]): 30 nM and 4.33 µg/mL; Annexin-V positive JJN-3 cells (%) at 0.1 pM TCB, Experiment 2 (human BCMA on cells [5]): 14.8%; Annexin-V positive JJN-3 cells (%) at 1 pM TCB, Experiment 1 (human BCMA on cells [5]): 9.3%; Annexin-V positive JJN-3 cells (%) at 1 pM TCB, Experiment 2 (human BCMA on cells [5]): 15%; Annexin-V positive JJN-3 cells (%) at 10 pM TCB, Experiment 1 (human BCMA on cells [5]): 13.3%; Annexin-V positive JJN-3 cells (%) at 10 pM TCB, Experiment 2 (human BCMA on cells [5]): 15.9%; Annexin-V positive JJN-3 cells (%) at 100 pM TCB, Experiment 1 (human BCMA on cells [5]): 12.5%; Annexin-V positive JJN-3 cells (%) at 100 pM TCB, Experiment 2 (human BCMA on cells [5]): 18.4%; Annexin-V positive JJN-3 cells (%) at 1000 pM TCB, Experiment 1 (human BCMA on cells [5]): 26.1%; Annexin-V positive JJN-3 cells (%) at 1000 pM TCB, Experiment 2 (human BCMA on cells [5]): 27%; Annexin-V positive JJN-3 cells (%) at 10000 pM TCB, Experiment 1 (human BCMA on cells [5]): 22.9%; Annexin-V positive JJN-3 cells (%) at 10000 pM TCB, Experiment 2 (human BCMA on cells [5]): 29.7%; EC50 of redirected T-cell killing of H929 cells (LDH release), Donor 1 (human BCMA on cells [6]): 0.0532 nM; EC50 of redirected T-cell killing of H929 cells (LDH release), Donor 3 (human BCMA on cells [6]): 0.0422 nM; EC50 of redirected T-cell killing of H929 cells (LDH release), Donor 4 (human BCMA on cells [6]): 0.0232 nM; EC50 of redirected T-cell killing of H929 cells (LDH release), Donor 5 (human BCMA on cells [6]): 0.0289 nM; EC50 (human BCMA on cells [7]): 7.9 nM and 1.14 µg/mL
B2 | 17.6% | 40.3% | 34.9% | 39% | 39.4% | 41.9% | 55.3% | 84% | 81.1% | 92.9% | 90.4% | 0.383 nM | 0.0187 nM | 0.0035 nM | 0.0015 nM | 0.0155 nM | 0.0167 nM | 0.0052 nM | 0.0022 nM | 0.0106 nM | EC50 (human BCMA on cells [4]): 3.8 nM and 0.553 µg/mL; Annexin-V positive JJN-3 cells (%) at 0.1 pM TCB, Experiment 2 (human BCMA on cells [5]): 12.8%; Annexin-V positive JJN-3 cells (%) at 1 pM TCB, Experiment 1 (human BCMA on cells [5]): 11.9%; Annexin-V positive JJN-3 cells (%) at 1 pM TCB, Experiment 2 (human BCMA on cells [5]): 13.5%; Annexin-V positive JJN-3 cells (%) at 10 pM TCB, Experiment 1 (human BCMA on cells [5]): 12.3%; Annexin-V positive JJN-3 cells (%) at 10 pM TCB, Experiment 2 (human BCMA on cells [5]): 13.6%; Annexin-V positive JJN-3 cells (%) at 100 pM TCB, Experiment 1 (human BCMA on cells [5]): 8.62%; Annexin-V positive JJN-3 cells (%) at 100 pM TCB, Experiment 2 (human BCMA on cells [5]): 14.4%; Annexin-V positive JJN-3 cells (%) at 1000 pM TCB, Experiment 1 (human BCMA on cells [5]): 16.8%; Annexin-V positive JJN-3 cells (%) at 1000 pM TCB, Experiment 2 (human BCMA on cells [5]): 21.7%; Annexin-V positive JJN-3 cells (%) at 10000 pM TCB, Experiment 1 (human BCMA on cells [5]): 24.8%; Annexin-V positive JJN-3 cells (%) at 10000 pM TCB, Experiment 2 (human BCMA on cells [5]): 26.9%; EC50 (human BCMA on cells [8]): 13.2 nM and 1.91 µg/mL; EC50 of redirected T-cell killing of H929 cells (LDH release), Donor 1 (human BCMA on cells [6]): 0.0097 nM; EC50 of redirected T-cell killing of H929 cells (LDH release), Donor 3 (human BCMA on cells [6]): 0.0117 nM; EC50 of redirected T-cell killing of H929 cells (LDH release), Donor 4 (human BCMA on cells [6]): 0.0072 nM; EC50 of redirected T-cell killing of H929 cells (LDH release), Donor 5 (human BCMA on cells [6]): 0.0068 nM; EC50 (human BCMA on cells [7]): 13.6 nM and 1.96 µg/mL

— patent US20220002427A1 (ENGMAB SARL, published 2022)
